Substitutions are numbered along the chain they refer to. Read-outs that look alike come from different tables or passages of the source. Blank lines part the entries; values can stand above or below the molecule they belong to.
Assays:
[1] = biological target: T1, human FXIIa (human, UniProt P00748 20-615, limits assumed); test: competition phage ELISA on plate-coated FXIIa; competed binder: Inf4-phage (pTacInf4) at a fixed amount
T1 sequence: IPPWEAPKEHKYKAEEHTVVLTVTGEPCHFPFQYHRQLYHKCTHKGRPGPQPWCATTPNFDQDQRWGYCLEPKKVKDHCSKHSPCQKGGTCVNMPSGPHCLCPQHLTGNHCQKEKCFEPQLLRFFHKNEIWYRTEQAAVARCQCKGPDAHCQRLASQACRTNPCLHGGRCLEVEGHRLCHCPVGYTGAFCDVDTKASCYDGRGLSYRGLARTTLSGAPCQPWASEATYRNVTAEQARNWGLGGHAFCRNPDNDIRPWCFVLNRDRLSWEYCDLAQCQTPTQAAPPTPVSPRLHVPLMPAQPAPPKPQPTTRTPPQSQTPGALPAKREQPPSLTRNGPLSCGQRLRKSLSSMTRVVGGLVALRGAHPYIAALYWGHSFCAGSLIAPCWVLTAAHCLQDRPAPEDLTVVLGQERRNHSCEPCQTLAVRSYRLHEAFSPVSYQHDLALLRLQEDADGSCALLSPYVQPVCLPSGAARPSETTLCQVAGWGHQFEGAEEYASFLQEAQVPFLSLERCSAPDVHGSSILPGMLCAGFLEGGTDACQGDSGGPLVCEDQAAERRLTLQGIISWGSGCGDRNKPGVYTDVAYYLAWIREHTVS

[2] = biological target: T1, human FXIIa; test: competition phage ELISA on plate-coated FXIIa; competed binder: 3F7 Fab-phage at a fixed amount
[3] = biological target: T1, human FXIIa
[4] = biological target: T2, human Factor XIIa-alpha (human, UniProt P00748 20-615); test: cell-based or functional assay
T2 sequence: T1 sequence

[5] = biological target: T1, human FXIIa; test: competition phage ELISA on plate-coated FXIIa; competed binder: 3H4 Fab-phage at a fixed amount
[6] = biological target: T3, human Factor XIIa-beta (human, UniProt P00748 354-615, limits assumed); test: SPR (Biacore A100), unpurified IgG4 supernatant captured on anti-human IgG, single FXIIa beta concentration (100 nM), 37 C, 1:1 fit; estimated
T3 construct: Bought from Enzyme Research Laboratories; also called FXIIa beta; FXIIa-beta
T3 sequence: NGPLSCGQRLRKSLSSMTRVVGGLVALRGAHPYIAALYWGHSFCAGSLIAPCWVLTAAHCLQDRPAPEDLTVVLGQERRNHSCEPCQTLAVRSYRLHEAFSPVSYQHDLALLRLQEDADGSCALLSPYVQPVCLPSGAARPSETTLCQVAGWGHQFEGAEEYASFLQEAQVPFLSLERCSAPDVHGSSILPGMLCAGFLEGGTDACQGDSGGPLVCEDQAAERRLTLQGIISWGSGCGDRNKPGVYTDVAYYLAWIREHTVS
Procedure: Anti-human (Goat anti-human IgG (gamma) mouse adsorbed, Invitrogen, Cat No. H10500) was chemically immobilised on a CM-5 sensor surface using amine coupling chemistry. Culture supernatants were diluted 1/60 with running buffer before capture. Antibodies were captured for 180 seconds representing an average capture of 800 response units (RU). FXIIa beta was then injected at zero and 100 nM for 180 seconds, and dissociated for 180 seconds. All assays were conducted on a Biacore A100 instrument at 37 degrees Celsius and the data fitted to a 1:1 kinetic model.

[7] = biological target: T3, human Factor XIIa-beta; test: SPR (Biacore), KD against parental 3F7
[8] = biological target: T3, human Factor XIIa-beta; test: SPR (Biacore), purified IgG4 captured on anti-human IgG, FXIIa beta 0-40 nM, 1:1 fit, 25 C

Molecule: rHA-Infestin-4 (recombinant Infestin-4 fused to human albumin)
- IC50 (read off the curve) [1]: 3 nM
- IC50 (read off the curve) [2]: 5 nM
- IC50 (read off the curve) [3]: 9 nM
- % Inhibition, ratio FXIIa-alpha:inhibitor 1:1 [4]: 90%
- IC50 (read off the curve) [5]: 5 nM

B1: VR63 (antibody, V domains shown)
VH: EVQLLESGGGLVQPGGSLRLSCAASGFTFSKYIMQWVRQAPGKGLEWVSGIRPSGGTTVYADSVKGRFTISRDNSKNTLYLQMNSLRAEDTAVYYCARALPRSGYLISPHYYYYALDVWGQGTTVTVSS
VL: QSELTQPPSASGTPGQRVTISCSGSSSNIGRNYVYWYQQVPGTAPKLLIYSNNQRPSGVPDRFSGSKSGTSASLVISGLRSEDEADYYCAAWDNQVRLGFGGGTKLTVLG
notes: Libraries were built on germline stop templates, so frameworks may differ
- Kd [6]: 8.3 nM

B2: VR62 (antibody, V domains shown)
VH: B1 VH
VL: QSVLTQPPSASGTPGQRVTISCSGSSSNIGRNYVYWYQQLPGTAPKLLIYSNNQRPSGVPDRFSGSKSGTSASLAISGLRSEDEADYYCAAWDQQVRLDFGGGTKLTVL
notes: as for B1
- Kd [6]: 5.81 nM

B4: VR52 (antibody, V domains shown)
VH: B1 VH
VL: B2 VL with Q94E, Q95R, D99M
notes: as for B1
- Kd [6]: 7.1 nM

B7: VR149 (antibody, V domains shown)
VH: B1 VH with I107M, S108K, P109K, H110N
VL: B1 VL with N94A, Q95S, V96L, L98G, G99V
notes: as for B1
- Kd [6]: 5.12 nM

B8: VR159 (antibody, V domains shown)
VH: B1 VH with I107V, S108K, P109H, H110G
VL: B1 VL with N94A, Q95S, V96L, L98G, G99V
notes: as for B1
- Kd [6]: 6.93 nM

B9: VR109 (antibody, V domains shown)
VH: B1 VH with R52N, S54A, G55T, G56N
VL: B1 VL with N94A, Q95S, V96L, L98G, G99V
notes: as for B1
- Kd [6]: 5.98 nM

B11: VR148 (antibody, V domains shown)
VH: B1 VH with I107V, S108K, P109K, H110Q
VL: B1 VL with N94A, Q95S, V96L, L98G, G99V
notes: as for B1
- Kd [6]: 6.93 nM

More lines, in order of falling Kd [6], values ahead:

- Kd [6]: 2.81 nM
B6: VR108 (antibody, V domains shown)
VH: B1 VH with R52N, S54A, G55T, G56K
VL: B1 VL with N94A, Q95S, V96L, L98G, G99V
notes: as for B1

- Kd [6]: 1.63 nM
- Fold affinity improvement [7]: 33 fold
- Kd [8]: 0.26 nM
- koff [8]: 6.4e-05 s⁻¹
- kon [8]: 240000 M⁻¹ s⁻¹
- % Inhibition, ratio FXIIa-alpha:Antibody 1:0.1 [4]: 34.5%
- % Inhibition, ratio FXIIa-alpha:Antibody 1:0.2 [4]: 67.3%
- % Inhibition, ratio FXIIa-alpha:Antibody 1:0.5 [4]: 99.7%
- % Inhibition, ratio FXIIa-alpha:Antibody 1:1 [4]: 100%
- % Inhibition, ratio FXIIa-alpha:Antibody 1:2 [4]: 100%
- % Inhibition, ratio FXIIa-alpha:Antibody 1:5 [4]: 100%
- % Inhibition, ratio FXIIa-alpha:Antibody 1:10 [4]: 100%
B3: VR24 (antibody, V domains shown)
VH: B1 VH
VL: QSVLTQPPSASGTPGQRVTISCSGSSEMTVHHYVYWYQQLPGTAPKLLIYSNNQRPSGVPDRFSGSKSGTSASLAISGLRSEDEADYYCAAWDASLRGVFGGGTKLTVLG

- Kd [6]: 1.52 nM
- Fold affinity improvement [7]: 51 fold
- Kd [8]: 0.17 nM
- koff [8]: 4.3e-05 s⁻¹
- kon [8]: 250000 M⁻¹ s⁻¹
- % Inhibition, ratio FXIIa-alpha:Antibody 1:0.1 [4]: 39.9%
- % Inhibition, ratio FXIIa-alpha:Antibody 1:0.2 [4]: 68.7%
- % Inhibition, ratio FXIIa-alpha:Antibody 1:0.5 [4]: 99.7%
- % Inhibition, ratio FXIIa-alpha:Antibody 1:1 [4]: 100%
- % Inhibition, ratio FXIIa-alpha:Antibody 1:2 [4]: 100%
- % Inhibition, ratio FXIIa-alpha:Antibody 1:5 [4]: 100%
- % Inhibition, ratio FXIIa-alpha:Antibody 1:10 [4]: 100%
B10: VR112 (antibody, V domains shown)
VH: B1 VH with R52N, P53V, S54P, G55V, G56Q, T57G
VL: B1 VL with N94A, Q95S, V96L, L98G, G99V

- Kd [6]: 1.31 nM
- Fold affinity improvement [7]: 24 fold
- Kd [8]: 0.36 nM
- koff [8]: 5.9e-05 s⁻¹
- kon [8]: 160000 M⁻¹ s⁻¹
B5: VR119 (antibody, V domains shown)
VH: B1 VH with R52N, P53V, S54P, G55L, G56Y, T57G
VL: B1 VL with N94A, Q95S, V96L, L98G, G99V

Source: US20200062863A1 (CSL BEHRING, published 2020)
